This passage reports Km and Vmax results from EP0311107A2, “Anti-HIV active 3'-fluoro-purine-2',3'-dideoxyribosides” (priority 1987, dated 1989).

Substrate in series [1]: Nc1nc(N)c2ncn([C@H]3C[C@H](F)[C@@H](CO)O3)c2n1
Kind of series: Substrate kinetics for deamination by adenosine deaminase. The format is biochemical. As to conditions: other: beef intestine adenosine deaminase.

Substrate in series [2]: Nc1nc(N)c2ncn([C@H]3C[C@@H](O)[C@@H](CO)O3)c2n1
The series is described as above. The format is biochemical. The note with it: other: beef intestine adenosine deaminase.

B1: beef intestine adenosine deaminase (ADA) (Bos taurus) (protein)
chain: MAQTPAFNKPKVELHVHLDGAIKPETILYYGRKRGIALPADTPEELQNIIGMDKPLSLPEFLAKFDYYMPAIAGCREAVKRIAYEFVEMKAKDGVVYVEVRYSPHLLANSKVEPIPWNQAEGDLTPDEVVSLVNQGLQEGERDFGVKVRSILCCMRHQPSWSSEVVELCKKYREQTVVAIDLAGDETIEGSSLFPGHVKAYAEAVKSGVHRTVHAGEVGSANVVKEAVDTLKTERLGHGYHTLEDATLYNRLRQENMHFEVCPWSSYLTGAWKPDTEHPVVRFKNDQVNYSLNTDDPLIFKSTLDTDYQMTKNEMGFTEEEFKRLNINAAKSSFLPEDEKKELLDLLYKAYGMPSPASAEQCL
notes: Kinetic properties of beef intestine adenosine deaminase for 2,6-diaminopurine 2′,3′-dideoxynucleoside analogues; purchased Boehringer Mannheim, Mannheim, West Germany; host or cells: beef intestine (tissue-derived enzyme)
B1: the Michaelis-Menten constant (Km) came out at 148 µM in series [1] and 74 µM in series [2]. Moreover, the Vmax in series [1] is 31 µmole/mg protein/min.
